Changes are numbered by the printed parent chain. Values joined by “and” are separate entries in the source; they are usually repeats but may differ in a detail not shown here. Identical values can stand only once. Values belong to the binder of their own block, whether it stands above or below them.
Legend:
[1] = molecular target: T1, MYD88 L265P peptide on HLA-B*07:02 (human); assay: printed as KD (TCR affinity/avidity): non-linear curve analysis of the IFNγ ELISA response; TCR-transduced CD8+ T cells from healthy donors with K562 cells transduced with HLA*B07:02 and loaded with titrated peptide; full-length, on cells
T1 peptide: RPIPIKYKAM

[2] = molecular target: T2, human self peptide predicted by Expitope for TCR2304 (source protein not named) peptide on HLA-B*07:02 (human); assay: cytokine release
T2 peptide: LPTRIAYYAM

[3] = molecular target: T3, human self peptide predicted by Expitope for TCR2304 (source protein not named) peptide on HLA-B*07:02 (human); assay: cytokine release
T3 peptide: RPAMIPYWAL

[4] = molecular target: T4, human self peptide predicted by Expitope for TCR2304 (source protein not named) peptide on HLA-B*07:02 (human); assay: cytokine release
T4 peptide: RPRMIGYGAI

[5] = molecular target: T5, human self peptide predicted by Expitope for TCR2304 (source protein not named) peptide on HLA-B*07:02 (human); assay: cytokine release
T5 peptide: RPVPISYHQL

[6] = molecular target: T6, human self peptide predicted by Expitope for TCR2304 (source protein not named) peptide on HLA-B*07:02 (human); assay: cytokine release
T6 peptide: LPQSIVYKYM

[7] = molecular target: T7, human self peptide predicted by Expitope for TCR2304 (source protein not named) peptide on HLA-B*07:02 (human); assay: cytokine release
T7 peptide: LPIHITYAAM

[8] = molecular target: T8, MYD88 L265P epitope of SEQ ID NO: 2 with alanine at position 2 (alanine scan); residues derived from the … (human); assay: cytokine release
T8 peptide: RAIPIKYKAM

[9] = molecular target: T9, human self peptide predicted by Expitope for TCR2304 (source protein not named) peptide on HLA-B*07:02 (human); assay: cytokine release
T9 peptide: LPLYISYVAM

[10] = molecular target: T10, human self peptide predicted by Expitope for TCR2304 (source protein not named) peptide on HLA-B*07:02 (human); assay: cytokine release
T10 peptide: TPPKIPYKAI

[11] = molecular target: T11, human self peptide predicted by Expitope for TCR2304 (source protein not named) peptide on HLA-B*07:02 (human); assay: cytokine release
T11 peptide: VPIIIKYLMF

[12] = molecular target: T12, human self peptide predicted by Expitope for TCR2304 (source protein not named) peptide on HLA-B*07:02 (human); assay: cytokine release
T12 peptide: RPDLIDYKSL

[13] = molecular target: T13, human self peptide predicted by Expitope for TCR2304 (source protein not named) peptide on HLA-B*07:02 (human); assay: cytokine release
T13 peptide: RPQPIYYGFS

[14] = molecular target: T14, human self peptide predicted by Expitope for TCR2304 (source protein not named) peptide on HLA-B*07:02 (human); assay: cytokine release
T14 peptide: KPIRIGYKIW

EC50 of peptide [1]: 0.102 µg/ml and 83 nM
B1: TCR2709 (TCR, V domains shown)
Valpha: DAKTTQPNSMESNEEEPVHLPCNHSTISGTDYIHWYRQLPSQGPEYVIHGLTSNVNNRMASLAIAEDRKSSTLILHRATLRDAAVYYCILRDRYGGSQGNLIFGKGTKLSVKP
Vbeta: NAGVTQTPKFRVLKTGQSMTLLCAQDMNHEYMYWYRQDPGMGLRLIHYSVGEGTTAKGEVPDGYNVSRLKKQNFLLGLESAAPSQTSVYFCASSYWPTTGESTDTQYFGPGTRLTVL

EC50 of peptide [1]: 0.009 µg/ml and 7.4 nM
B2: TCR1610 (TCR, V domains shown)
Valpha: KQEVTQIPAALSVPEGENLVLNCSFTDSAIYNLQWFRQDPGKGLTSLLLIQSSQREQTSGRLNASLDKSSGRSTLYIAASQPGDSATYLCAPLGGGYNKLIFGAGTRLAVHP
Vbeta: NAGVTQTPKFRILKIGQSMTLQCAQDMNHNYMYWYRQDPGMGLKLIYYSVGAGITDKGEVPNGYNVSRSTTEDFPLRLELAAPSQTSVYFCASRLPTTDEKLFFGSGTQLSVL

binding result [2]: no recognition
binding result [3]: no recognition
binding result [4]: no recognition
binding result [5]: no recognition
binding result [6]: no recognition
binding result [7]: no recognition
binding result [8]: no recognition
binding result [9]: no recognition
binding result [10]: no recognition
binding result [11]: no recognition
binding result [12]: no recognition
binding result [13]: no recognition
binding result [14]: no recognition
EC50 of peptide [1]: 0.003 µg/ml and 2.4 nM
B3: TCR2304 (TCR, V domains shown)
Valpha: GQNIDQPTEMTATEGAIVQINCTYQTSGFNGLFWYQQHAGEAPTFLSYNVLDGLEEKGRFSSFLSRSKGYSYLLLKELQMKDSASYLCAVRASGTYKYIFGTGTRLKVLA
Vbeta: DAGVIQSPRHEVTEMGQEVTLRCKPISGHNSLFWYRQTMMRGLELLIYFNNNVPIDDSGMPEDRFSAKMPNASFSTLKIQPSEPRDSAVYFCASQDSYEQYFGPGTRLTVT

EC50 of peptide [1]: 0.033 µg/ml and 27 nM
B4: TCR2202 (TCR, V domains shown)
Valpha: LAKTTQPISMDSYEGQEVNITCSHNNIATNDYITWYQQFPSQGPRFIIQGYKTKVTNEVASLFIPADRKSSTLSLPRVSLSDTAVYYCLSLSDSNYQLIWGAGTKLIIKP
Vbeta: DSGVTQTPKHLITATGQRVTLRCSPRSGDLSVYWYQQSLDQGLQFLIQYYNGEERAKGNILERFSAQQFPDLHSELNLSSLELGDSALYFCASSVGQGSYEQYFGPGTRLTVT

EC50 of peptide [1]: 0.024 µg/ml and 19 nM
B5: TCR2719 (TCR, V domains shown)
Valpha: B4 Valpha with S90V, L91G, S92A
Vbeta: B4 Vbeta with V95P, Q97G, S99A

EC50 of peptide [1]: 0.004 µg/ml and 3.2 nM
B6: TCR2205 (TCR, V domains shown)
Valpha: LAKTTQPISMDSYEGQEVNITCSHNNIATNDYITWYQQFPSQGPRFIIQGYKTKVTNEVASLFIPADRKSSTLSLPRVSLSDTAVYYCLVGRDGGSYIPTFGRGTSLIVHP
Vbeta: B4 Vbeta with Q48H, V95A, S99A

EC50 of peptide [1]: 0.009 µg/ml and 7.4 nM
B7: TCR1605 (TCR, V domains shown)
Valpha: GESVGLHLPTLSVQEGDNSIINCAYSNSASDYFIWYKQESGKGPQFIIDIRSNMDKRQGQRVTVLLNKTVKHLSLQIAATQPGDSAVYFCAEGTGSARQLTFGSGTQLTVLP
Vbeta: DVKVTQSSRYLVKRTGEKVFLECVQDMDHENMFWYRQDPGLGLRLIYFSYDVKMKEKGDIPEGYSVSREKKERFSLILESASTNQTSMYLCASGPFRDSVLTLVANVLTFGAGSRLTVL

EC50 of peptide [1]: 0.387 µg/ml and 310 nM
B8: TCR1336 (TCR, V domains shown)
Valpha: GENVEQHPSTLSVQEGDSAVIKCTYSDSASNYFPWYKQELGKRPQLIIDIRSNVGEKKDQRIAVTLNKTAKHFSLHITETQPEDSAVYFCAASGRYDYKLSFGAGTTVTVRA
Vbeta: DAMVIQNPRYQVTQFGKPVTLSCSQTLNHNVMYWYQQKSSQAPKLLFHYYDKDFNNEADTPDNFQSRRPNTSFCFLDIRSPGLGDAAMYLCATASDLQGDRSTEAFFGQGTRLTVV

EC50 of peptide [1]: 0.099 µg/ml and 81 nM
B9: TCR2716 (TCR, V domains shown)
Valpha: AQTVTQSQPEMSVQEAETVTLSCTYDTSENNYYLFWYKQPPSRQMILVIRQEAYKQQNATENRFSVNFQKAAKSFSLKISDSQLGDTAMYFCAFMKPYSGGGADGLTFGKGTHLIIQP
Vbeta: AAGVIQSPRHLIKEKRETATLKCYPIPRHDTVYWYQQGPGQDPQFLISFYEKMQSDKGSIPDRFSAQQFSDYHSELNMSSLELGDSALYFCASSLAGTTVYNEQFFGPGTRLTVL

EC50 of peptide [1]: 0.003 µg/ml and 2.4 nM
B10: TCR2207 (TCR, V domains shown)
Valpha: GQNIDQPTEMTATEGAIVQINCTYQTSGFNGLFWYQQHAGEAPTFLSYNVLDGLEEKGRFSSFLSRSKGYSYLLLKELQMKDSASYLCAVDVGYSTLTFGKGTMLLVSP
Vbeta: GAVVSQHPSWVICKSGTSVKIECRSLDFQATTMFWYRQFPKQSLMLMATSNEGSKATYEQGVEKDKFLINHASLTLSTLTVTSAHPEDSSFYICSARDRSGTLGGELFFGEGSRLTVL

EC50 of peptide [1]: 0.02 µg/ml and 16 nM
B11: TCR2705 (TCR, V domains shown)
Valpha: QKEVEQDPGPLSVPEGAIVSLNCTYSNSAFQYFMWYRQYSRKGPELLMYTYSSGNKEDGRFTAQVDKSSKYISLFIRDSQPSDSATYLCAMSGTGGFKTIFGAGTRLFVKA
Vbeta: ETGVTQTPRHLVMGMTNKKSLKCEQHLGHNAMYWYKQSAKKPLELMFVYSLEERVENNSVPSRFSPECPNSSHLFLHLHTLQPEDSALYLCASSQDRPNYYGYTFGSGTRLTVV

EC50 of peptide [1]: 0.123 µg/ml and 100 nM
B12: TCR2219 (TCR, V domains shown)
Valpha: QQPVQSPQAVILREGEDAVINCSSSKALYSVHWYRQKHGEAPVFLMILLKGGEQMRHEKIFASFNEKKQQSSLYLTASQLSYSGTYFCGTAHLRAGSYQLTFGKGTKLSVIP
Vbeta: EAQVTQNPRYLITVTGKKLTVTCSQNMNHEYMSWYRQDPGLGLRQIYYSMNVEVTDKGDVPEGYKVSRKEKRNFPLILESPSPNQTSLYFCASSSSSGGAFNEQFFGPGTRLTVL

Reference: US20220064257A1 (published 2022)
